This is an account of results in patent US20220153832A1 (PIONYR IMMUNOTHERAPEUTICS, published 2022).

Test [1] deals with T1, N-terminally polyhistidine tagged human MARCO ECD (147-520), recombinant (human, UniProt Q9UEW3 147-520).
T1 construct: also called PI-RG-3000; recombinant human MARCO; not shown: N-terminal polyhistidine tag
T1 sequence: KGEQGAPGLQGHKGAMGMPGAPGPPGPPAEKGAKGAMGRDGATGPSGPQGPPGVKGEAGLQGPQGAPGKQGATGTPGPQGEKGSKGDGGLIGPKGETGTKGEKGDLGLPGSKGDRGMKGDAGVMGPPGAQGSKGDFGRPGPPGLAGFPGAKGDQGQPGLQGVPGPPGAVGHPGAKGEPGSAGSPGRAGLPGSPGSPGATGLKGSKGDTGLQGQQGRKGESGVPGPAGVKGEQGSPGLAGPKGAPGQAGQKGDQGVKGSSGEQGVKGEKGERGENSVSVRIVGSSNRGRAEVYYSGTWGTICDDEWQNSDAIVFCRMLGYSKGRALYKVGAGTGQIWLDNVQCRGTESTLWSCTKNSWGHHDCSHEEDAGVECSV
Kind of test: SPR, multi cycle kinetics, huMARCO antigen. The essentials: (§1)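 Antibodies were captured by anti-mouse Fc mAb amine-coupled to a CM4 chip (4500 RU target). Running buffer was 10 mM HEPES pH 7.4, 150 mM NaCl, 3 mM EDTA, 0.05% surfactant P20. Injections were at 0.625–10 nM with 90 s association and 600 s dissociation, and constants were fitted in BIAevaluation 3.1.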
Background: Surface plasmon resonance follows binding to a sensor surface in real time, without labels.

Test [2] addresses T2, Mouse MARCO, full length, on cells (mouse, UniProt Q60754 1-518).
T2 construct: whole, on cells; the cell type is named under assay; also called muMARCO; MuMARCO
T2 sequence (looked up): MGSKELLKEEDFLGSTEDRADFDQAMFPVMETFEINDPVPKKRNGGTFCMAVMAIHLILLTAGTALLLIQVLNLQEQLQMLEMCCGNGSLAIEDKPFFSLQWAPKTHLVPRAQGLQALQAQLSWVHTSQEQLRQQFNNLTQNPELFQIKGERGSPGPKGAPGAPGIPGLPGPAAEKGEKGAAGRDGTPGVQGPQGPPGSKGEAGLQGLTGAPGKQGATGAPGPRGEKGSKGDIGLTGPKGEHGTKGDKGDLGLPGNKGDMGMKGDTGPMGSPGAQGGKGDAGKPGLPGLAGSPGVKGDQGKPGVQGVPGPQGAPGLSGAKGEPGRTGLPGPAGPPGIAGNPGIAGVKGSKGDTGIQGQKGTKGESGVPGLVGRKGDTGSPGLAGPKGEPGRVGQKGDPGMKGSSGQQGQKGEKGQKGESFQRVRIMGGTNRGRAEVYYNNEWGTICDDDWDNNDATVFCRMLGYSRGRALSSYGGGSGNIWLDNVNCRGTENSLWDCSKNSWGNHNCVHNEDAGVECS
Kind of test: competition with AF488 E. coli binding to muMARCO 293T cells, flow cytometry. (In flow cytometry, cells or beads pass a laser one at a time.)

Test [3] has as its target T1, N-terminally polyhistidine tagged human …. Put plainly: Biacore (SPR), binding affinity to human MARCO. The essentials: as §1
Test [4] has the same target. Kind of test: Biacore, recombinant human MARCO; control sample.
Test [5] shares this target. Put plainly: Biacore; oxidation stress sample (1 mM AAPH, 6 hrs).
The target of test [6] is T3, Cynomolgus MARCO, full length, on cells (cynomolgus, UniProt A0A2K5X0Z2 1-519).
T3 construct: whole, on cells; also called cyno MARCO; CyMARCO
T3 sequence: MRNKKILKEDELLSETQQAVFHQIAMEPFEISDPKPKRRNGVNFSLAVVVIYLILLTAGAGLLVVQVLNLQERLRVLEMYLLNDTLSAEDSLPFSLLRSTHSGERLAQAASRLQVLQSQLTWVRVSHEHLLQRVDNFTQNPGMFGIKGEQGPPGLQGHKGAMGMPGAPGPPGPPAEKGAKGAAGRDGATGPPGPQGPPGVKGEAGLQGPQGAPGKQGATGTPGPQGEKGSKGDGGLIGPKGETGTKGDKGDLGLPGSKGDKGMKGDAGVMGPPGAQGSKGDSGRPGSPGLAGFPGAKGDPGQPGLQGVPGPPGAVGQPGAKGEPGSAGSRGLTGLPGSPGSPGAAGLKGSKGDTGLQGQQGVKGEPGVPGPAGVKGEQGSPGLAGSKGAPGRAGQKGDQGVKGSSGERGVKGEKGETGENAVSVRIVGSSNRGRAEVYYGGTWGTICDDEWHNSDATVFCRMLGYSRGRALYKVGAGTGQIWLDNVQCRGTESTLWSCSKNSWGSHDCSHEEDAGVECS
Kind of test: flow cytometry, cells overexpressing cyno MARCO.

B1: PI-HX-3061 (antibody, rat IgG2a)
heavy: EVQLVESGGGLVQPGSSLKLSCVASKFTFSNYGMNWIRQAPKKGLEWIALIYYNSNNKYYADSVKGRFTISRDNSKNTLYLEMNSLRSEDTAMYYCAKSLTGGSDYFDSWGQGVMVTVSSAETTAPSVYPLAPGTALKSNSMVTLGCLVKGYFPEPVTVTWNSGALSSGVHTFPAVLQSGLYTLTSSVTVPSSTWPSQTVTCNVAHPASSTKVDKKIVPRNCGGDCKPCICTGSEVSSVFIFPPKPKDVLTITLTPKVTCVVVDISQDDPEVHFSWFVDDVEVHTAQTRPPEEQFNSTFRSVSELPILHQDWLNGRTFRCKVTSAAFPSPIEKTISKPEGRTQVPHVYTMSPTKEEMTQNEVSITCMVKGFYPPDIYVEWQMNGQPQENYKNTPPTMDTDGSYFLYSKLNVKKEKWQQGNTFTCSVLHEGLHNHHTEKSLSHSP
light: DVQMTQSPSYLAASPGESVSISCKASKSIGTFLAWYQEKPEKTNKLLIYSGSTLQSGTPSRFSGSGSGTDFTLTIRNLEPEDFAVYYCQQHDEYPFTFGSGTKLEIKRADAAPTVSIFPPSTEQLATGGASVVCLMNNFYPRDISVKWKIDGTERRDGVLDSVTDQDSKDSTYSMSSTLSLTKADYESHNLYTCEVVHKTSSSPVVKSFNRNEC
notes: Parental rat hybridoma, rat IgG2a; cross reactive with human and mouse MARCO
As usually defined, the Kd is the concentration at which binding is half-saturated. In general, EC50 refers to the concentration at which the effect is half-maximal. Turning to B1, the Kd in test [1] was found to be 0.256 nM. Further, the 50% effective concentration (EC50) in test [2] was determined as 0.85 nM.

B2: PI-3015-AB (antibody, human IgG1, kappa)
heavy: not shown
light: DIQMTQSPSSLSASVGDRVTITCRASEGISNDLAWYQQKPGKAPKLLIYAASRLQSGVPSRFSGSGSGTDYTLTISSMQPEDFATYYCQQSYKYPLTFGQGTKLEIKRTVAAPSVFIFPPSDEQLKSGTASVVCLLNNFYPREAKVQWKVDNALQSGNSQESVTEQDSKDSTYSLSSTLTLSKADYEKHKVYACEVTHQGLSSPVTKSFNRGEC
Consider B2, for which the Kd came out at 0.51 nM in test [3], 1.2 nM in test [4] and 1.29 nM in test [5].

B3: PI-HX-3031 (antibody)
heavy: QVQLKESGPGLVQPSQTLSLTCTVSGFSLTSYHVSWVRQPPGKGLEWMGAIWTGGSIAYNSLLKSRLSISRDTSKSQVFLKMNSLQTEDTATYYCARDLSDYYSSYTSFDYWGQGVMVTVSTAETTAPSVYPLAPGTALKSNSMVTLGCLVKGYFPEPVTVTWNSGALSSGVHTFPAVLQSGLYTLTSSVTVPSSTWSSQAVTCNVAHPASSTKVDKKIVPRECNPCGCTGSEVSSVFIFPPKTKDVLTITLTPKVTCVVVDISQNDPEVRFSWFIDDVEVHTAQTHAPEKQSNSTLRSVSELPIVHRDWLNGKTFKCKVNSGAFPAPIEKSISKPEGTPRGPQVYTMAPPKEEMTQSQVSITCMVKGFYPPDIYTEWKMNGQPQENYKNTPPTMDTDGSYFLYSKLNVKKETWQQGNTFTCSVLHEGLHNHHTEKSLSHSP
light: DIQMTQSPASLSTSLGETVSIECLASEGISNDLAWYQQKSGKSPQLLIYAASRLQDGVPSRFSGSGSGTRYSLKISGMQPEDEADYFCQQSYKYPLTFGSGTKLEIKRADAAPTVSIFPPSTEQLATGGASVVCLMNNFYPRDISVKWKIDGTERRDGVLDSVTDQDSKDSTYSMSSTLSLTKADYESHNLYTCEVVHKTSSSPVVKSFNRNEC
notes: Parental rat hybridoma, rat IgG2a
On to B3, for which the Kd in test [1] was determined as 0.0913 nM.

B4: PI-3010-AB (antibody, human IgG1, kappa)
heavy: not shown
light: DIQMTQSPASLSTSLGETVSIECLASEGISNDLAWYQQKSGKSPQLLIYAASRLQDGVPSRFSGSGSGTRYSLKISGMQPEDEADYFCQQSYKYPLTFGSGTKLEIKRTVAAPSVFIFPPSDEQLKSGTASVVCLLNNFYPREAKVQWKVDNALQSGNSQESVTEQDSKDSTYSLSSTLTLSKADYEKHKVYACEVTHQGLSSPVTKSFNRGEC
Consider B4, for which, in test [6], the response was half-maximal at 0.34 nM (EC50). In other words, the sub-nanomolar range.
